Source: patent publication US8840891 (RSR, dated 2014)
Like-named read-outs stand apart in the source and are kept apart here. Blank lines part the entries; values can stand above or below the molecule they belong to.

Tests used:
[1] = target: TSHR coated onto tubes (human) (UniProt P16473); assay: TSHR coated tubes, competitor 125I-TSH
[2] = target: TSHR coated onto tubes (human) (UniProt P16473); assay: TSHR coated tubes, competitor 125I-M22 IgG
[3] = target: wild type human TSHR (human) (UniProt P16473); assay: cell-based or functional assay
[4] = target: TSHR with Tyr82 mutated to Alanine (human) (UniProt P16473); assay: cell-based or functional assay
[5] = target: TSHR with Lys129 mutated to Alanine (human) (UniProt P16473); assay: cell-based or functional assay
[6] = target: wild type human TSHR (human) (UniProt P16473); assay: cell-based or functional assay; remark: listed apart in the source
[7] = target: TSHR with Asp160 mutated to Lysine (human) (UniProt P16473); assay: cell-based or functional assay
[8] = target: wild type human TSHR (thyrotropin receptor) expressed on CHO cells (human) (UniProt P16473); assay: cell-based or functional assay
[9] = target: TSHR with Tyr206 mutated to Alanine expressed on CHO cells (human) (UniProt P16473); assay: cell-based or functional assay
[10] = target: TSHR I568T (activating mutation) expressed in CHO cells (human) (UniProt P16473); assay: cell-based or functional assay
[11] = target: TSHR Asp151Ala expressed in CHO cells (human) (UniProt P16473); assay: cell-based or functional assay
[12] = target: TSHR with Glu107 mutated to Alanine expressed on CHO cells (human) (UniProt P16473); assay: cell-based or functional assay
[13] = target: wild type human TSHR (thyrotropin receptor) expressed on CHO cells (human) (UniProt P16473); assay: cell-based or functional assay; remark: listed apart in the source
[14] = target: TSHR with Tyr185 mutated to Alanine expressed on CHO cells (human) (UniProt P16473); assay: cell-based or functional assay

Molecule: 5C9 IgG (antibody)
% inhib of 125I-TSH binding at 0.01 µg/mL [1]: 2%
% inhib of 125I-TSH binding at 0.1 µg/mL [1]: 8%
% inhib of 125I-TSH binding at 1 µg/mL [1]: 21%
% inhib of 125I-TSH binding at 10 µg/mL [1]: 30%
% inhib of 125I-TSH binding at 100 µg/mL [1]: 50%
% inhib of 125I-M22 IgG binding at 0.01 µg/mL [2]: 5%
% inhib of 125I-M22 IgG binding at 0.1 µg/mL [2]: 6%
% inhib of 125I-M22 IgG binding at 1 µg/mL [2]: 14%
% inhib of 125I-M22 IgG binding at 10 µg/mL [2]: 22%
% inhib of 125I-M22 IgG binding at 100 µg/mL [2]: 53%
cyclic AMP; 5C9 0.01 µg/mL + TSH (fmol/cell well) [3]: 13900
cyclic AMP; 5C9 0.1 µg/mL + TSH (fmol/cell well) [3]: 6250
cyclic AMP; 5C9 1.0 µg/mL + TSH (fmol/cell well) [3]: 1600
cyclic AMP; 5C9 10 µg/mL + TSH (fmol/cell well) [3]: 822
cyclic AMP; 5C9 100 µg/mL + TSH (fmol/cell well) [3]: 978
cyclic AMP; 5C9 100 µg/mL only (fmol/cell well) [3]: 289
Mutated/wild type (%); 5C9 0.01 µg/mL + TSH [4]: 113%
Mutated/wild type (%); 5C9 0.1 µg/mL + TSH [4]: 203%
Mutated/wild type (%); 5C9 1.0 µg/mL + TSH [4]: 185%
Mutated/wild type (%); 5C9 10 µg/mL + TSH [4]: 200%
Mutated/wild type (%); 5C9 100 µg/mL + TSH [4]: 105%
Mutated/wild type (%); 5C9 100 µg/mL only [4]: 494%
cyclic AMP; 5C9 0.01 µg/mL + TSH (fmol/cell well) [4]: 15700
cyclic AMP; 5C9 0.1 µg/mL + TSH (fmol/cell well) [4]: 12700
cyclic AMP; 5C9 1.0 µg/mL + TSH (fmol/cell well) [4]: 2960
cyclic AMP; 5C9 10 µg/mL + TSH (fmol/cell well) [4]: 1650
cyclic AMP; 5C9 100 µg/mL + TSH (fmol/cell well) [4]: 1030
cyclic AMP; 5C9 100 µg/mL only (fmol/cell well) [4]: 1430
Mutated/wild type (%); 5C9 0.01 µg/mL + TSH [5]: 115%
Mutated/wild type (%); 5C9 0.1 µg/mL + TSH [5]: 488%
Mutated/wild type (%); 5C9 1.0 µg/mL + TSH [5]: 1270%
Mutated/wild type (%); 5C9 10 µg/mL + TSH [5]: 2040%
Mutated/wild type (%); 5C9 100 µg/mL + TSH [5]: 3240%
Mutated/wild type (%); 5C9 100 µg/mL only [5]: 203%
cyclic AMP; 5C9 0.01 µg/mL + TSH (fmol/cell well) [5]: 12200
cyclic AMP; 5C9 0.1 µg/mL + TSH (fmol/cell well) [5]: 13300
cyclic AMP; 5C9 1.0 µg/mL + TSH (fmol/cell well) [5]: 12800
cyclic AMP; 5C9 10 µg/mL + TSH (fmol/cell well) [5]: 11200
cyclic AMP; 5C9 100 µg/mL + TSH (fmol/cell well) [5]: 15900
cyclic AMP; 5C9 100 µg/mL only (fmol/cell well) [5]: 217
cyclic AMP; 5C9 0.01 µg/mL + TSH (fmol/cell well) [6]: 10500
cyclic AMP; 5C9 0.1 µg/mL + TSH (fmol/cell well) [6]: 2710
cyclic AMP; 5C9 1.0 µg/mL + TSH (fmol/cell well) [6]: 1010
cyclic AMP; 5C9 10 µg/mL + TSH (fmol/cell well) [6]: 548
cyclic AMP; 5C9 100 µg/mL + TSH (fmol/cell well) [6]: 491
cyclic AMP; 5C9 100 µg/mL only (fmol/cell well) [6]: 107
Mutated/wild type (%); 5C9 0.01 µg/mL + M22 [7]: 91%
Mutated/wild type (%); 5C9 0.1 µg/mL + M22 [7]: 82%
Mutated/wild type (%); 5C9 1.0 µg/mL + M22 [7]: 117%
Mutated/wild type (%); 5C9 10 µg/mL + M22 [7]: 309%
Mutated/wild type (%); 5C9 100 µg/mL + M22 [7]: 218%
Mutated/wild type (%); 5C9 100 µg/mL only [7]: 107%
cyclic AMP; 5C9 0.01 µg/mL + M22 (fmol/cell well) [7]: 15200
cyclic AMP; 5C9 0.1 µg/mL + M22 (fmol/cell well) [7]: 7700
cyclic AMP; 5C9 1.0 µg/mL + M22 (fmol/cell well) [7]: 963
cyclic AMP; 5C9 10 µg/mL + M22 (fmol/cell well) [7]: 642
cyclic AMP; 5C9 100 µg/mL + M22 (fmol/cell well) [7]: 657
cyclic AMP; 5C9 100 µg/mL only (fmol/cell well) [7]: 458

Cyclic AMP produced; 5C9 0.01 µg/mL + TSH (fmol/cell well) [8]: 16100
Cyclic AMP produced; 5C9 0.1 µg/mL + TSH (fmol/cell well) [8]: 6220
Cyclic AMP produced; 5C9 1.0 µg/mL + TSH (fmol/cell well) [8]: 1310
Cyclic AMP produced; 5C9 10 µg/mL + TSH (fmol/cell well) [8]: 396
Cyclic AMP produced; 5C9 100 µg/mL + TSH (fmol/cell well) [8]: 292
Cyclic AMP produced; 5C9 100 µg/mL only (fmol/cell well) [8]: 444
Cyclic AMP produced; 5C9 0.01 µg/mL + TSH (fmol/cell well) [9]: 18400
Cyclic AMP produced; 5C9 0.1 µg/mL + TSH (fmol/cell well) [9]: 10800
Cyclic AMP produced; 5C9 1.0 µg/mL + TSH (fmol/cell well) [9]: 3460
Cyclic AMP produced; 5C9 10 µg/mL + TSH (fmol/cell well) [9]: 1560
Cyclic AMP produced; 5C9 100 µg/mL + TSH (fmol/cell well) [9]: 506
Cyclic AMP produced; 5C9 100 µg/mL only (fmol/cell well) [9]: 482
Mutated/wild type (%); 5C9 0.01 µg/mL + TSH [9]: 114%
Mutated/wild type (%); 5C9 0.1 µg/mL + TSH [9]: 174%
Mutated/wild type (%); 5C9 1.0 µg/mL + TSH [9]: 265%
Mutated/wild type (%); 5C9 10 µg/mL + TSH [9]: 395%
Mutated/wild type (%); 5C9 100 µg/mL + TSH [9]: 173%
Mutated/wild type (%); 5C9 100 µg/mL only [9]: 109%
% inhibition of basal cyclic AMP activity; 5C9 IgG 1 µg/mL [10]: 83%
% inhibition of TSH stimulation of cyclic AMP; 5C9 IgG 1 µg/mL [11]: 49%
Cyclic AMP produced; Experiment 1; 5C9 0.01 µg/mL + TSH (fmol/cell well) [12]: 15000
Cyclic AMP produced; Experiment 1; 5C9 0.1 µg/mL + TSH (fmol/cell well) [12]: 5780
Cyclic AMP produced; Experiment 1; 5C9 1.0 µg/mL + TSH (fmol/cell well) [12]: 394
Cyclic AMP produced; Experiment 1; 5C9 10 µg/mL + TSH (fmol/cell well) [12]: 449
Cyclic AMP produced; Experiment 1; 5C9 100 µg/mL + TSH (fmol/cell well) [12]: 203
Cyclic AMP produced; Experiment 1; 5C9 100 µg/mL only (fmol/cell well) [12]: 462
Cyclic AMP produced; Experiment 2; 5C9 0.01 µg/mL + TSH (fmol/cell well) [12]: 21000
Cyclic AMP produced; Experiment 2; 5C9 0.1 µg/mL + TSH (fmol/cell well) [12]: 1540
Cyclic AMP produced; Experiment 2; 5C9 1.0 µg/mL + TSH (fmol/cell well) [12]: 28
Cyclic AMP produced; Experiment 2; 5C9 10 µg/mL + TSH (fmol/cell well) [12]: 321
Cyclic AMP produced; Experiment 2; 5C9 100 µg/mL + TSH (fmol/cell well) [12]: 64
Cyclic AMP produced; Experiment 2; 5C9 100 µg/mL only (fmol/cell well) [12]: 408
Mutated/wild type (%); Experiment 1; 5C9 0.01 µg/mL + TSH [12]: 88%
Mutated/wild type (%); Experiment 1; 5C9 0.1 µg/mL + TSH [12]: 97%
Mutated/wild type (%); Experiment 1; 5C9 1.0 µg/mL + TSH [12]: 37%
Mutated/wild type (%); Experiment 1; 5C9 10 µg/mL + TSH [12]: 91%
Mutated/wild type (%); Experiment 1; 5C9 100 µg/mL + TSH [12]: 105%
Mutated/wild type (%); Experiment 1; 5C9 100 µg/mL only [12]: 36%
Mutated/wild type (%); Experiment 2; 5C9 0.01 µg/mL + TSH [12]: 113%
Mutated/wild type (%); Experiment 2; 5C9 0.1 µg/mL + TSH [12]: 37%
Mutated/wild type (%); Experiment 2; 5C9 1.0 µg/mL + TSH [12]: 4%
Mutated/wild type (%); Experiment 2; 5C9 10 µg/mL + TSH [12]: 150%
Mutated/wild type (%); Experiment 2; 5C9 100 µg/mL + TSH [12]: 27%
Mutated/wild type (%); Experiment 2; 5C9 100 µg/mL only [12]: 193%
Cyclic AMP produced; 5C9 0.01 µg/mL + TSH (fmol/cell well) [13]: 17300
Cyclic AMP produced; 5C9 0.1 µg/mL + TSH (fmol/cell well) [13]: 6220
Cyclic AMP produced; 5C9 1.0 µg/mL + TSH (fmol/cell well) [13]: 1660
Cyclic AMP produced; 5C9 10 µg/mL + TSH (fmol/cell well) [13]: 481
Cyclic AMP produced; 5C9 100 µg/mL + TSH (fmol/cell well) [13]: 275
Cyclic AMP produced; 5C9 100 µg/mL only (fmol/cell well) [13]: 123
Cyclic AMP produced; 5C9 0.01 µg/mL + TSH (fmol/cell well) [14]: 9370
Cyclic AMP produced; 5C9 0.1 µg/mL + TSH (fmol/cell well) [14]: 4540
Cyclic AMP produced; 5C9 1.0 µg/mL + TSH (fmol/cell well) [14]: 1200
Cyclic AMP produced; 5C9 10 µg/mL + TSH (fmol/cell well) [14]: 301
Cyclic AMP produced; 5C9 100 µg/mL only (fmol/cell well) [14]: 163
Mutated/wild type (%); 5C9 0.01 µg/mL + TSH [14]: 54%
Mutated/wild type (%); 5C9 0.1 µg/mL + TSH [14]: 73%
Mutated/wild type (%); 5C9 1.0 µg/mL + TSH [14]: 72%
Mutated/wild type (%); 5C9 10 µg/mL + TSH [14]: 63%
Mutated/wild type (%); 5C9 100 µg/mL only [14]: 133%
B1: 5C9 IgG (human monoclonal autoantibody to the TSHR) (antibody, from another filing, V domains shown)
VH: EVQLVESGGGLIQPGGSLRLSCAASGFTVSSNYMSWVRQAPGKGLEWVSVTYSGGSTSYADSVKGRFTISRDNSKNTLYLQMNSLRAEDTAVYYCARGGRYCSSISCYARSGCDYWGQGTLVTVSS
VL: AIQMTQSPSSLSASVGDRVTITCRASQSISNYLNWYQQKPGKAPKLLIYAASSLQSGVPSRFSGSGSGTDFTLTISSLQPEDFATYYCQQSYSSPSTTFGQGTKLEIK
